Test results as given in patent US8580254B2, “Anti-IGF antibodies” (Boehringer Ingelheim International GmbH, priority 2007, dated 2013).
One block for each molecule: values may come before it.

Key:
[1] = test system: COLO 205 tumour cells xenografted into nude mice; assay: In vivo COLO 205 xenograft study; design: species or system athymic NMRI nude mice; conditions: 50 mg/kg 5FU alone, once weekly, FIG. 7
Protocol: Female athymic NMRI nude mice, 6-8 weeks old, are inoculated subcutaneously in the right flank with the COLO 205 human colon tumour-derived cell line (ATCC #CCL-222) (5×10^6 in 100 μl Ringer solution). Tumour cell growth is assessed by measuring tumour volume three times per week using calipers and the formula: π/6× larger diameter×(smaller diameter)^2. Treatment is administered intravenously to groups of ten mice and commenced when tumours have developed to a size of between 130 to 270 mm^3. The treatment schedule consists of two times weekly intravenous infusions of vehicle and antibody 40186 at a dose of 25 mg/kg for two treatment cycles. In combinations of antibody with 5FU, a dose of 50 mg/kg 5FU is administered weekly. The study is terminated when tumours reached an average size of 1500 mm^3. All animal experiments are performed according to the legal requirements in Austria as well as guidelines of the American Association for Laboratory Animal Science (AALAS).

[2] = cynomolgus monkeys; cited from earlier work
[3] = humans; cited from earlier work
human IGF-1 = target: T1, human IGF-1 (Homo sapiens, UniProt P05019); assay: ELISA binding titration of IgG1 antibodies; conditions: FIG. 1A
T1 construct: Insulin-like growth factor-1 (IGF-1; a 70 amino-acid polypeptide)
Protocol: (§1) ELISA screening for IGF-1 positive Fab clones is performed by coating Maxisorb 384-well plates overnight at 4° C. with 5 μg/ml recombinant human IGF-1 (Gropep) in 1× coating buffer (Gibco). Wells are washed with 1×TBS-T and blocked with 1× Blocking Buffer (Gibco) for 1 h at room temperature. Bacterial lysates containing antibody Fab fragments are added for 1.5 hr at room temperature, then washed five times with 1×TBS-T and detected with Alkaline Phosphatase-conjugated Affini Pure Goat Anti-HumanIgG F(ab′)2. Fragment Specific Mab (Dianova) at a dilution of 1:10 000 and visualized with Attophos Substrate (Roche). Fluorescence readings are performed on Tecan fluorescence reader at excitation 430 nm and emission 535 nm.
(§2) Cross-reactivity to recombinant human IGF-1, murine IGF-1, murine IGF-2 (R&D Systems), recombinant human IGF-2, rat IGF-1, rat IGF-2 (Gropep) and recombinant human insulin (Roche) is performed by ELISA using the same procedure as above, but with a 1 μg/ml coating dilution.

human IGF-2 = target: T2, human IGF-2 (Homo sapiens, UniProt P01344); assay: ELISA binding titration of IgG1 antibodies; conditions: FIG. 1B
T2 construct: insulin-like growth factor-2 (IGF-2; a 67 amino-acid polypeptide)
Protocol: as §1, §2

murine IGF-1 = target: T3, murine IGF-1 (Mus musculus, UniProt P05017); assay: ELISA binding titration of IgG1 antibodies; conditions: FIG. 1C
T3 construct: Insulin-like growth factor-1 (IGF-1; a 70 amino-acid polypeptide); purchased R&D Systems
Protocol: as §1, §2

murine IGF-2 = target: T4, murine IGF-2 (Mus musculus, UniProt P09535); assay: ELISA binding titration of IgG1 antibodies; conditions: FIG. 1D
T4 construct: insulin-like growth factor-2 (IGF-2; a 67 amino-acid polypeptide); purchased R&D Systems
Protocol: as §1, §2

rat IGF-1 = target: T5, rat IGF-1 (Rattus norvegicus, UniProt P08025); assay: ELISA binding titration of IgG1 antibodies; conditions: FIG. 1E
T5 construct: Insulin-like growth factor-1 (IGF-1; a 70 amino-acid polypeptide)
T5 sequence (P08025 49-118 limits assumed): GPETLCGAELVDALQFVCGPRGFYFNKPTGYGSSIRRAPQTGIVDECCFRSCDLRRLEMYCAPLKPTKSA
Protocol: as §1, §2

rat IGF-2 = target: T6, rat IGF-2 (Rattus norvegicus, UniProt P01346); assay: ELISA binding titration of IgG1 antibodies; conditions: FIG. 1F
T6 construct: insulin-like growth factor-2 (IGF-2; a 67 amino-acid polypeptide)
T6 sequence (P01346 25-91 limits assumed): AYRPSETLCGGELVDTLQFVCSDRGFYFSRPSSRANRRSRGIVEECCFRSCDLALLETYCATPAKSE
Protocol: as §1, §2

[4] = target: T7, biotinylated-IGF-1 binding to coated insulin-like growth factor-1 receptor (Homo sapiens, UniProt P05019); assay: ELISA neutralization of biotinylated IGF-1 binding to coated IGF-1R
T7 construct: Insulin-like growth factor-1 (IGF-1; a 70 amino-acid polypeptide); purchased R&D Systems (IGF-1R)
Protocol: To identify IGF antibodies that neutralize the ability of IGF-1 and IGF-2 to bind to the IGF-1R, an ELISA is established by coating plates with 1.5 μg/ml recombinant human IGF-1R (R&D Systems) which allows the binding of biotinylated IGF-1 and biotinylated IGF-2. Bound IGF-1 or IGF-2 is detected using alkaline phosphatase-conjugated streptavidin (1:10,000 dilution) (Roche). The neutralization potency of antibody Fab fragments is measured by adding 0.1-1 μg/ml of Fab to the wells coated with IGF-1R just prior to the addition of biotinylated IGF-1 or IGF-2 ligands. Antibody Fab fragments that block the binding of biotinylated ligand are identified by a reduction in fluorometric signal.

[5] = test system: IGF-1 stimulated COLO 205 cell growth; assay: COLO 205 cell growth assay (CellTiter-Glo); type: cell-based, human; conditions: 10 ng/ml IGF-1; antibody 5 and 30 μg/ml; 5 days; FIG. 3A
Protocol: (§3) The COLO 205 colon cancer-derived cell line (ATCC # CCL-222) is plated in 96-well plates at a cell density of 1000 cells per well in serum-free RPMI medium. 10 ng/ml of either IGF-1 or IGF-2 is added in the presence or absence of a control antibody or antibodies 40183 and 40186 at concentrations of 5 and 30 μg/ml. Cells are cultured for 5 days then the cell number in each well determined using the CellTiter-Glo luminescent cell viability assay (Promega). Luminescence was recorded using a XFluor GENios Pro 4.

[6] = test system: IGF-2 stimulated COLO 205 cell growth; assay: COLO 205 cell growth assay (CellTiter-Glo); type: cell-based, human; conditions: 10 ng/ml IGF-2; antibody 5 and 30 μg/ml; 5 days; FIG. 3B
Protocol: as §3

[7] = test system: insulin stimulated COLO 205 cell growth; assay: COLO 205 cell growth assay (CellTiter-Glo); type: cell-based, human; conditions: FIG. 3C

Molecule: O=c1[nH]cc(F)c(=O)[nH]1 [5FU, 5-fluorouracil, reference compound]
- decrease in median tumour growth [1]: 30%

Molecule: bevacizumab
- terminal half-life [2]: 206 ± 9.12 h
- terminal half life [3]: approximately 20 days

- binding to human IGF-1 (ELISA) (human IGF-1): concentration dependent binding
- binding to human IGF-2 (ELISA) (human IGF-2): concentration dependent binding
- binding to murine IGF-1 (ELISA) (murine IGF-1): concentration dependent binding
- binding to murine IGF-2 (ELISA) (murine IGF-2): concentration dependent binding
- binding to rat IGF-1 (ELISA) (rat IGF-1): concentration dependent binding
- binding to rat IGF-2 (ELISA) (rat IGF-2): concentration dependent binding
- IC50, inhibition of IGF-1 ligand binding to IGF-1R ([4]; FIG. 2): approximately 5 ng/ml
- IC50 ([4]; FIG. 2, read-out: IC50, inhibition of IGF-1 ligand binding to IGF-1R): ~0.03 nM
B1: antibody 40183: fully human IgG1/Igλ anti-IGF antibody; variable heavy SEQ ID NO:18, variable light SEQ ID NO:20; constant regions as 40186 (antibody, listed as Homo sapiens, V domains shown)
VH: QVELVESGGGLVQPGGSLRLSCAASGFTWSSFAMSWVRQAPGKGLEWVSYISYLGSYTGYADSVKGRFTISRDNSKNTLYLQMNSLRAEDTAVYYCARGTKFDYWGQGTLVTVSS
VL: DIVLTQPPSVSGAPGQRVTISCTGSSSNIGTYDVHWYQQLPGTAPKLLIYSNSKRPSGVPDRFSGSKSGTSASLAITGLQSEDEADYYCSITRVFGGGTKLTVLG
modifications: IgG1/lambda constant regions
notes: fully human IgG1/Igλ anti-IGF antibody; constant regions as 40186
- effect on IGF-1 induced COLO 205 cell growth [5]: dose dependent inhibition
- effect on IGF-2 induced COLO 205 cell growth [6]: dose dependent inhibition
- effect on insulin induced COLO 205 cell growth [7]: no effect
